According to paper PMC12449476, “Transient ligand contacts of the intrinsically disordered N-terminus of neuropeptide Y2 receptor regulate arrestin-3 recruitment” (Nature Communications, 2025):
Numbering of substitutions follows the chain as printed.

Assays:
[1] = molecular target: T1, WT Nluc-Y2R-eYFP (Homo sapiens, UniProt P49146); test: NanoBRET equilibrium ligand binding
T1 construct: expressed in transfected cells; host or cells: membrane preparations of transiently transfected HEK293
T1 sequence (P49146 1-381): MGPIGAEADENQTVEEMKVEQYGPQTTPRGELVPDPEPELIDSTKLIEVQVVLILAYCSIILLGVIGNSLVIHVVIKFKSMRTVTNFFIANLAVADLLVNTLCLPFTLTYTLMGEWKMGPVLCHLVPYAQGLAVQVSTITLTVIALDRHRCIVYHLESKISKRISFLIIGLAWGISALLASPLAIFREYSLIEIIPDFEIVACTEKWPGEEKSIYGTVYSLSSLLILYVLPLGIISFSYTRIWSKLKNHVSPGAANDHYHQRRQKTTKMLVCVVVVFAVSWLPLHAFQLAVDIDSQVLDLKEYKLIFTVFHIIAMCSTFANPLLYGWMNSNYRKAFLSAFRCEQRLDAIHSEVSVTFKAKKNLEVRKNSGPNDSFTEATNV
Description: Briefly, for each data point, membranes containing 0.03 μg total protein were suspended in ice-cold BRET binding buffer (Hank’s balanced salt solution (HBSS) containing 20 mM HEPES (pH 7.4), 0.1% bovine serum albumin (BSA)). The assay was performed in solid black 96-WP with a total assay volume of 100 μL in technical duplicate or triplicate. […] Raw BRET was calculated as the ratio of fluorescence to luminescence, and the background value of the unspecific binding controls was subtracted to obtain the netBRET signal.

[2] = molecular target: T2, Nluc-Y2R-eYFP Δ2-41 (Homo sapiens, UniProt P49146); test: NanoBRET ligand dissociation; assay type: binding; conditions: koff
T2 construct: expressed in transfected cells; host or cells: membrane preparations of transiently transfected HEK293
T2 sequence (P49146 with tags, fused parts or gaps): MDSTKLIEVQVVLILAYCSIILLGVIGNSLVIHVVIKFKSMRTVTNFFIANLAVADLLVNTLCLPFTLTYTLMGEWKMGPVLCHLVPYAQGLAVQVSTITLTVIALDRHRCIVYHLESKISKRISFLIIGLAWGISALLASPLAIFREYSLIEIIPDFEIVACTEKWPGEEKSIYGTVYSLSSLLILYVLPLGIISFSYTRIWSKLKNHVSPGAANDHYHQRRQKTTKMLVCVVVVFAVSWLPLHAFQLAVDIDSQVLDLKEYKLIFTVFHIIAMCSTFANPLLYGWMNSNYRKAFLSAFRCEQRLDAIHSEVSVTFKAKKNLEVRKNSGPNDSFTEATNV
Description: (§1) Briefly, for each data point, membranes containing 0.03 μg total protein were suspended in ice-cold BRET binding buffer (Hank’s balanced salt solution (HBSS) containing 20 mM HEPES (pH 7.4), 0.1% bovine serum albumin (BSA)). The assay was performed in solid black 96-WP with a total assay volume of 100 μL in technical duplicate or triplicate. […] To determine unspecific binding, 100 µM of the Y2R antagonist JNJ-31020028 (Selleck Europe) were added to each well. […] To start the dissociation measurement, the antagonist JNJ-31020028 was added to a final concentration of 50 µM (20 µL) using the built-in injector system of the plate reader and the BRET decay was measured for 20 min. Raw BRET was calculated as the ratio of fluorescence to luminescence, and the background value of the unspecific binding controls was subtracted to obtain the netBRET signal.

[3] = molecular target: T3, Nluc-Y2R-eYFP D/E35-39K (Homo sapiens, UniProt P49146, D35K/E37K/E39K); test: NanoBRET ligand dissociation; assay type: binding; conditions: koff, charge reversal in the acidic patches
T3 construct: expressed in transfected cells; host or cells: HEK293, transiently transfected, membrane preparations
T3 sequence (P49146 1-381 D35K/E37K/E39K): T1 sequence (P49146 1-381) with D35K, E37K, E39K
Description: as §1

[4] = molecular target: T4, Nluc-Y2R-eYFP E15-20K (Homo sapiens, UniProt P49146, E15K/E16K/E20K); test: NanoBRET ligand dissociation; assay type: binding; conditions: koff, charge reversal in the acidic patches
T4 construct: expressed in transfected cells; host or cells: membrane preparations of transiently transfected HEK293
T4 sequence (P49146 1-381 E15K/E16K/E20K): T1 sequence (P49146 1-381) with E15K, E16K, E20K
Description: as §1

[5] = molecular target: T1, WT Nluc-Y2R-eYFP; conditions: cited from earlier work
From the text: In the following, we are addressing the Reviewer’s comments point‐by‐point. We quote statements from the Reviewer in bold face. We refer to changes made in the manuscript in yellow italics. Reviewer #1 (Remarks to the Author): In this work ...

## K18-Tamra-NPY: tetramethylrhodamine(Tamra)-labeled peptide (K^18-Tamra-NPY)
[1]; HEK293 membranes, 10 min RT, mean, 95% CI 0.0273 to 0.0311
  BRETmax: 0.0292
[1]; mean, 95% CI 0.0352 to 0.0881
  Fraction high affinity: 0.0617
[1]; replicate 1
  KD, high replicates (log): -9.88
  KD, low replicates (log): -6.52
[1]; replicate 2
  KD, high replicates (log): -9.40
  KD, low replicates (log): -6.56
[1]; replicate 3
  KD, high replicates (log): -9.43
  KD, low replicates (log): -6.54
[2]
  Increase of ligand dissociation vs wild-type: two to three-fold
[3]
  Increase of ligand dissociation vs wild-type: two to three-fold
[4]
  Increase of ligand dissociation vs wild-type: two to three-fold
[5]; G-protein-dependent high-affinity state
  KD,high: subnanomolar
[5]; G-protein-independent low-affinity state
  Kd: ~300 nM
